Test results from US11306331B2, “Processes for the production of hydroxycinnamic acids using polypeptides having tyrosine ammonia lyase activity” (CysBio ApS, priority 2014, dated 2022).

Experiments:
[1] = biological target: T1, Saccharothrix espanaensis SeSam8 (Protein GI 433607630), His-tagged (N-terminal tag SEQ ID NO: 11) (Saccharothrix espanaensis, UniProt Q2EYY5); experiment: In vitro kinetics of purified His-tagged SeSam8 (tyrosine/phenylalanine ammonia lyase activity, absorbance at 315/295 nm); format: biochemical
T1 sequence (Q2EYY5 1-510): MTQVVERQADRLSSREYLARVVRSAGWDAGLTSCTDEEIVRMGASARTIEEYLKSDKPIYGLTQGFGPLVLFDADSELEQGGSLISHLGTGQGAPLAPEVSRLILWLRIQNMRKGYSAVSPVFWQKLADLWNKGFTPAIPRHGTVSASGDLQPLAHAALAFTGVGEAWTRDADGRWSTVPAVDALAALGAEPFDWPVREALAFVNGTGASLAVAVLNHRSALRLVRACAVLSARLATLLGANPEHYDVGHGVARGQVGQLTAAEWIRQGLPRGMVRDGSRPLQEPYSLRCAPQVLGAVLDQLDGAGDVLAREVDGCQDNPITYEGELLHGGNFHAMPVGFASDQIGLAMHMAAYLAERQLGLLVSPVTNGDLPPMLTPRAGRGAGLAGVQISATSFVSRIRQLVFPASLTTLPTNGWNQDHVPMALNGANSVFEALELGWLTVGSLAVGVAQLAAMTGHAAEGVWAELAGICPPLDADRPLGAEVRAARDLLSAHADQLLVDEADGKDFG
Description: Four of the enzymes were further purified by His-tag purification as follows. A DNA linker (5′ phosphorylated oligonucleotides CBJP559 and CBJP560, Table 5) was inserted in place of the sequence between the NdeI and BgIII site in plasmid pCDFDuet-1. This would result in the addition of the amino acids MAHHHHHHENLYFQ (SEQ ID NO: 11) to the N-terminal end of the polypeptides. The resulting plasmid was amplified with primers CBJP575 and CBJP576 (table 5) and the genes were amplified and combined using the Gibson reaction (New England Biolabs). The PCR amplification used the same reverse primers as in example 1, but the forward primers matching the His-tag site of the linker (Table 5). Plasmids carrying the genes (e.g. FjXAL, FIG. 4) were transformed into electrocompetent E. coli BL21(DE3)pLysS cells (Life Technologies) and selected on LB plates containing 50 ug/mL streptomycin.
Strains expressing His-tagged versions of the enzymes were grown in LB media overnight at 37° C. and diluted into fresh LB media with 1 mM IPTG and growth was propagated overnight (approximately 18 h) at 30° C. […]
Enzymatic assays were performed in 200 μL volumes in wells in a UV transparent 96-well plate, by following the increase in absorbance at 315 nm (pHCA) or 295 nm (CA). […] The enzymatic activity was calculated as U/g, where U is defined as μmol substrate converted per minute.

[2] = test system: Saccharomyces cerevisiae CEN.PK102-5B; experiment: Specific production of pHCA and CA by S. cerevisiae expressing TAL enzymes; format: cell-based; conditions: 72 h, 30° C., +/- standard deviation
Description: A number of the previously characterized enzymes were characterized when expressed in Saccharomyces cerevisiae. Genes encoding HaXAL1 and FjXAL were synthesized with codon optimization for S. cerevisiae available by GeneArt (Life Technologies), and were named HaXAL1 Sc and FjXALSc. Genes were amplified using the oligonucleotide (refer to specific name) shown in Table 6, and inserted by uracil-excision into the vector pCfB132 together with the PPGK1 promoter amplified by primers PPGK1_fw and PPGK1_rv (Jensen et al., 2014). The finished plasmids were transformed into Saccharomyces cerevisiae CEN.PK102-5B (MAT a ura3-52 his3Δ1 leu2-3/112 MAL2-8c SUC2) using a standard lithium acetate transformation protocol and selected for on synthetic drop-out media plates lacking uracil.
Cells were grown in SC medium without uracil, and diluted into Delft medium or Feed-In-Time (FIT) medium (m2p-labs) supplemented with leucine and histidine. After 72 h of incubation at 30° C. with shaking, samples were taken for the analysis of optical density at 600 nm and for clarification of the supernatant, which was analyzed by HPLC as described in example 1. The specific production was calculated as micromolar (μM) concentration per unit of optical density of the culture at 600 nm and is shown in Table 4.

[3] = test system: E. coli BL21(DE3)pLysS cells; experiment: Titers of hydroxycinnamic acids in supernatants of E. coli cultures expressing TAL homologs; format: cell-based, Escherichia coli; conditions: 16 hours, 37° C., duplicate
Method: E. coli strains described in Example 1 were used. M9 medium with 0.2% glucose and 0.5 mM IPTG also containing either tyrosine (204 μM), L-dopa (194 μM) or 3-O-methyldopa (262 μM) was transferred as 3-mL aliquots into a 24-well deep-well plate (Enzyscreen). Aliquots were taken for HPLC before the wells were inoculated with 200 μL of overnight cultures of the strains. The plates were placed at 37° C. with shaking for 16 hours. Samples of the supernatant were withdrawn after two rounds of centrifugation. The samples were subjected to HPLC along with chemical standards as described in Example 1. p-coumaric acid, caffeic acid and ferulic acid was measured by absorbance at 333 nm. Tyrosine, L-dopa and 3-O-methyldopa were measured by fluorescence (excitation at 274 nm, emission at 303 nm).
There was no measurable product in the medium before inoculation.

Work on `N[C@@H](Cc1ccc(O)cc1)C(=O)O` [Tyr, tyrosine] yielded a Kcat ([1]; 30° C, 1.56 μM to 200 μM tyrosine or 193 μM to 25 mM phenylalanine) of 0.014 s⁻¹ and a TAL/PAL ([1]; ratio of Kcat/Km for Tyr over Phe) of 730.

B1: Flavobacterium johnsoniae FjXAL tyrosine ammonia lyase (Protein GI 146298870), SEQ ID NO: 1, His-tagged (N-terminal tag SEQ ID NO: 11) (Flavobacterium … (protein)
chain: MNTINEYLSLEEFEAIIFGNQKVTISDVVVNRVNESFNFLKEFSGNKVIYGVNTGFGPMAQYRIKESDQIQLQYNLIRSHSSGTGKPLSPVCAKAAILARLNTLSLGNSGVHPSVINLMSELINKDITPLIFEHGGVGASGDLVQLSHLALVLIGEGEVFYKGERRPTPEVFEIEGLKPIQVEIREGLALINGTSVMTGIGVVNVYHAKKLLDWSLKSSCAINELVQAYDDHFSAELNQTKRHKGQQEIALKMRQNLSDSTLIRKREDHLYSGENTEEIFKEKVQEYYSLRCVPQILGPVLETINNVASILEDEFNSANDNPIIDVKNQHVYHGGNFHGDYISLEMDKLKIVITKLTMLAERQLNYLLNSKINELLPPFVNLGTLGFNFGMQGVQFTATSTTAESQMLSNPMYVHSIPNNNDNQDIVSMGTNSAVITSKVIENAFEVLAIEMITIVQAIDYLGQKDKISSVSKKWYDEIRNIIPTFKEDQVMYPFVQKVKDHLINN
In the case of B1, the “Specific production of CA” value ([2]; Delft + Tyr (10 mM)) is reported as 0 ± 0 μM OD600-1, the “Specific production of pHCA” value ([2]; Delft + Tyr (10 mM)) is reported as 120 ± 16 μM OD600-1 and the “Specific production of CA” value ([2]; Delft medium) is reported as 0 ± 0 μM OD600-1. For the same molecule, the “Specific production of pHCA” value ([2]; Delft medium) was 30 ± 3.5 μM OD600-1, the “Specific production of CA” value ([2]; FIT + Tyr (10 mM)) was 0 ± 0 μM OD600-1 and the “Specific production of pHCA” value ([2]; FIT + Tyr (10 mM)) was 120 ± 19 μM OD600-1. For the same molecule, the “Specific production of CA” value ([2]; FIT medium) was 0 ± 0 μM OD600-1, the “Specific production of pHCA” value ([2]; FIT medium) was 130 ± 16 μM OD600-1 and the “Titer of ferulic acid” value ([3]; M9 + 3-O-methyldopa (262 μM)) was 1.1 ± 0.3 µM. For the same molecule, the “Titer of caffeic acid” value ([3]; M9 + L-dopa (194 μM)) was 5.7 ± 1.0 µM and the “Titer of p-coumaric acid” value ([3]; M9 + tyrosine (204 μM)) was 215 ± 11.1 µM.
